Experimental data from FireProtDB (doi:10.1016/s0014-5793(98)01666-4).
Where “and” joins values, the source holds several entries; their conditions need not be identical. Equal entries are not always repeated.

Conditions: Rattus norvegicus, pH 7.4, Thermal, DSC, EDTA 10 mM, NaCl 0.20 M, transition: 2, reversible: yes, whole UniProt chain shown

B1: Parvalbumin alpha wild type, P02625 (protein)
chain: MSMTDLLSAEDIKKAIGAFTAADSFDHKKFFQMVGLKKKSADDVKKVFHILDKDKSGFIEEDELGSILKGFSSDARDLSAKETKTLMAAGDKDGDGKIGVEEFSTLVAES
unfolding enthalpy (calorimetric) (25 °C): 70 kcal/mol and 75 kcal/mol
unfolding enthalpy (van 't Hoff) (25 °C): 71 kcal/mol and 74 kcal/mol
unfolding free energy (25 °C): 3.5 kcal/mol and 4.7 kcal/mol
Tm: 53.6 °C
unfolding enthalpy (calorimetric): 75 kcal/mol
unfolding enthalpy (van 't Hoff): 74 kcal/mol
